# Reference: article PMC10812545, “The Binding of HSPA8 and Mitochondrial ALDH2 Mediates Oxygen-Glucose Deprivation-Induced Fibroblast Senescence” (Antioxidants, 2023)
# “And” between values parts separate entries of the source, which are not always exact repeats. Equal entries are not always repeated.
# Biological target: the molecule itself
# Experiment: cross-linking; DSS 500 μM, 30 min at room temperature, quenched with 10 mM Tris; NIH3T3 cells (CON, OGD, siHSPA8); Western blot for ALDH2
protein,measurement,value
"Aldehyde dehydrogenase 2 (ALDH2) (enzyme, mouse (endogenous in NIH3T3), UniProt P47738 20-519, looked up, Aldehyde dehydrogenase 2, mitochondrial, endogenous in the mouse fibroblast line NIH3T3; Seen as dimer and tetramer after DSS cross-linking; also called mitochondrial ALDH2; mitochondrial aldehyde dehydrogenase; source: endogenous, NIH3T3 lysate) SAAATSAVPAPNHQPEVFCNQIFINNEWHDAVSRKTFPTVNPSTGEVICQVAEGNKEDVDKAVKAARAAFQLGSPWRRMDASDRGRLLYRLADLIERDRTYLAALETLDNGKPYVISYLVDLDMVLKCLRYYAGWADKYHGKTIPIDGDFFSYTRHEPVGVCGQIIPWNFPLLMQAWKLGPALATGNVVVMKVAEQTPLTALYVANLIKEAGFPPGVVNIVPGFGPTAGAAIASHEGVDKVAFTGSTEVGHLIQVAAGSSNLKRVTLELGGKSPNIIMSDADMDWAVEQAHFALFFNQGQCCCAGSRTFVQENVYDEFVERSVARAKSRVVGNPFDSRTEQGPQVDETQFKKILGYIKSGQQEGAKLLCGGGAAADRGYFIQPTVFGDVKDGMTIAKEEIFGPVMQILKFKTIEEVVGRANDSKYGLAAAVFTKDLDKANYLSQALQAGTVWINCYDVFGAQSPFGGYKMSGSGRELGEYGLQAYTEVKTVTVKVPQKNS",stoichiometry N,2 and 4
